The results in this text go back to US11414460B2, “KRAS-specific capture agents, compositions, and methods of making and using” (Institute for Systems Biology, priority 2019, dated 2022).

For test [1], the target named is T1, KRAS (G12D) (Homo sapiens, UniProt P01116, G12D). Kind of test: ELISA binding of cyclic peptides to KRAS (G12D). The note with it: absorbance units; for ELISA binding compared with LRGGnf: FIG. 3 and FIG. 4, 5 μM and 20 μM peptide, KRAS (WT) and KRAS (G12D). The procedure: FIG. 2 is a graph of a single point ELISA assay comparing the binding (measured in absorbance units, A.U.) of cyclic peptide 7b10 (LRGDGnf; SEQ ID NO:5) and LRGGnf (SEQ ID NO:4) to KRAS (WT) and KRAS (G12D).
FIG. 3 is a graph of ELISA assays of four peptides (LRGGnf (SEQ ID NO:4), LRG (F—Br) (SEQ ID NO:6), LRGGnf-Az3 (SEQ ID NO:4), and LRGGnf-Az2 (SEQ ID NO:4)) at two different concentrations (5 μM and 20 μM) to KRAS (WT) and KRAS (G12D) comparing the binding (measured in absorbance units, A.U.). […] All of the cyclic peptides show preferential binding to KRAS (G12D) over KRAS (WT).
FIG. 4 is a graph of ELISA assays of four peptides (QDNY (SEQ ID NO:14), QNGnfY (SEQ ID NO:24), QQGnfGnf (SEQ ID NO:3), and LRGGnf (SEQ ID NO:4)) at two different concentrations (5 μM and 20 μM) to KRAS (WT) and KRAS (G12D) comparing the binding (measured in absorbance units, A.U.). […] All of the cyclic peptides show preferential binding to KRAS (G12D) over KRAS (WT).
(In an ELISA, binding on a coated surface is turned into a signal by an enzyme label.)

In test [2] the target is T1, KRAS (G12D). Kind of test: EC50 for KRAS (G12D). It is filed as binding.
The target of test [3] is KRAS (WT) (Homo sapiens, UniProt P01116). Put plainly: EC50 for KRAS (WT). It is filed as binding.

Positions of bridges follow the written chain, without caps; N, C: chain ends. Non-standard residues stand in square brackets, D forms with d. Residues, ends and D or L forms follow the SMILES beside them. Triazole bridges read from a SMILES are 1,4-linked. No end group written: not given here. ξ: configuration not given here. dPhe(4-guanidino) = N=C(N)Nc1ccc(C[C@@H](N)C(=O)O)cc1; Phe(4-guanidino) = N=C(N)Nc1ccc(C[C@H](N)C(=O)O)cc1; ξLys(N3) = [N-]=[N+]=NCCCCC(N)C(=O)O; Aha = [N-]=[N+]=NCC[C@H](N)C(=O)O; Pra = C#CC[C@H](N)C(=O)O

With “LRG (F—Br): cyclic peptide with variable region LRGF-Br (SEQ ID NO:6), F—Br is bromophenylalanine (LRG[bromophenylalanine]; also: cyclic peptide, only variable region given)”, the “ELISA binding compared with LRGGnf” value in test [1] was “noticeable worse”.

Regarding “LRGGnf: cyclic peptide with variable region LRGGnf (SEQ ID NO:4) (LRG[Phe(4-guanidino)]; also: cyclic peptide, only variable region given)”, the “binding compared to LRGDGnf, single point ELISA” value in test [1] (FIG. 2, single point ELISA to KRAS (WT) and KRAS (G12D)) stood at 5 times.

Broadly, the EC50 is the midpoint of the concentration-response curve. Low values mean an effect from little substance, high ones a need for much substance. With `N=C(N)Nc1ccc(C[C@H]2NC(=O)[C@@H](Cc3ccc(NC(=N)N)cc3)NC(=O)[C@@H](CCC(N)=O)NC(=O)[C@@H](CCC(N)=O)NC(=O)[C@@H](N)Cc3cn(nn3)CCCCC(C(N)=O)NC2=O)cc1` (stereo partly shown) [QQGnfGnf] (H-[Pra][dQ][dQ][dPhe(4-guanidino)][dPhe(4-guanidino)][ξLys(N3)]-NH2; triazole 1-6), the EC50 came out at 1 µM in test [2] and 3 µM in test [3].

In the case of `CC(C)C[C@@H]1NC(=O)[C@@H](N)Cc2cn(nn2)CC[C@@H](C(N)=O)NC(=O)[C@H](Cc2ccc(NC(=N)N)cc2)NC(=O)CNC(=O)[C@H](CCCNC(=N)N)NC1=O` [LRGGnf-Az2] (H-[Pra]LRG[Phe(4-guanidino)][Aha]-NH2; triazole 1-6; N-terminus and C-terminus assumed), in test [1], the “ELISA binding compared with LRGGnf” value is given as “slightly better”.

Take “QDNY: cyclic peptide with variable region QDNY (SEQ ID NO:14) (also: cyclic peptide, variable region only, ring closure not given here)”: the “ELISA binding compared with LRGGnf” value in test [1] is listed as “more so”.

With “LRGGnf-Az3: cyclic peptide LRGGnf (SEQ ID NO:4) with azidoornithine (OrnN3 or Az3) (LRG[Phe(4-guanidino)]; also: cyclic peptide, only variable region given, azidoornithine (Az3) modification, position not given here)”, the “ELISA binding compared with LRGGnf” value in test [1] was “comparable to LRGGnf”.
